In one experiment the target is GFP-Miro1 (human) (UniProt Q8IXI2).
In experiment [1] the target is endogenous Miro1 (human (endogenous in HEK293 and HeLa)) (UniProt Q8IXI2).
The target of experiment [2] is T1, eGFP-cGTPase-TMD (Homo sapiens, UniProt Q8IXI2).
T1 construct: human Miro1 isoform 1 (UniProtKB Q8IXI2-1), C-terminal GTPase domain with the transmembrane domain; made from the GFP-Miro1 plasmid by site directed mutagenesis; also called C-terminal GTPase domain of Miro1; source: HEK293, transfected, in lysate; HeLa, transfected, in living cells; not shown: GFP, N-terminal, kept
T1 sequence (Q8IXI2 whole entry, looked up, the tested form may be a part, canonical isoform): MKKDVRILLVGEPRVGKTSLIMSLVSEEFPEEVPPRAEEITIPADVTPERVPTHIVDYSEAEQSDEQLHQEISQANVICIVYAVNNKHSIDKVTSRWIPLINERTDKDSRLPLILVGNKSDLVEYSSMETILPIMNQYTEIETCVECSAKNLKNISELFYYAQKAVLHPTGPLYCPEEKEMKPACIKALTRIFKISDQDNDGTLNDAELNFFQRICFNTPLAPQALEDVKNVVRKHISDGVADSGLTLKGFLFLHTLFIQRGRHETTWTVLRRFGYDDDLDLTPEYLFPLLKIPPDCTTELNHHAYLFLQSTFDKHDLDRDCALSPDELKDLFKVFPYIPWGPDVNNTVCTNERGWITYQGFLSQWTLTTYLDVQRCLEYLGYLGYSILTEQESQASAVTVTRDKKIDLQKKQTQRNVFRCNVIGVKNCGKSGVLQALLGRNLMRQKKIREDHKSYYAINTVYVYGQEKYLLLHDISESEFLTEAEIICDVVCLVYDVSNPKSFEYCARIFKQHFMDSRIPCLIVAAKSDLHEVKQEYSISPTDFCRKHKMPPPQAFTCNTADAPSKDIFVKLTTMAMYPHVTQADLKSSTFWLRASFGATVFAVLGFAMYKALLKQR
Briefly: pull-down; Nbs coupled to NHS-Sepharose (nanotraps) incubated 16 h at 4°C with the soluble fraction of HEK293 cells transiently expressing GFP-Miro1, GFP-tagged Miro1 deletion constructs or GFP (lysis buffer with 1% Triton X-100); immunoblot of bound fractions with anti-GFP and anti-GAPDH. The conditions noted are these: one partner purified. Background: Immunoblotting shows a protein as a band on a membrane.

For experiment [3], the target named is T1, eGFP-cGTPase-TMD. Briefly: live-cell fluorescence imaging (relocalisation of the chromobody); TagRFP chromobodies transiently co-expressed with GFP-Miro1 or GFP-tagged Miro1 deletion constructs in HeLa cells. The conditions noted are these: partners not purified.
The target of another experiment is T2, Miro1 isoform 2 (Homo sapiens (endogenous, HEK293), UniProt Q8IXI2-2).
T2 construct: endogenous human Miro1 isoform 2, identified by mass spectrometry (search against the Uniprot Homo sapiens database; one unique peptide); source: endogenous, HEK293 lysate
T2 sequence (Q8IXI2 other isoform, or with tags, fused parts or gaps): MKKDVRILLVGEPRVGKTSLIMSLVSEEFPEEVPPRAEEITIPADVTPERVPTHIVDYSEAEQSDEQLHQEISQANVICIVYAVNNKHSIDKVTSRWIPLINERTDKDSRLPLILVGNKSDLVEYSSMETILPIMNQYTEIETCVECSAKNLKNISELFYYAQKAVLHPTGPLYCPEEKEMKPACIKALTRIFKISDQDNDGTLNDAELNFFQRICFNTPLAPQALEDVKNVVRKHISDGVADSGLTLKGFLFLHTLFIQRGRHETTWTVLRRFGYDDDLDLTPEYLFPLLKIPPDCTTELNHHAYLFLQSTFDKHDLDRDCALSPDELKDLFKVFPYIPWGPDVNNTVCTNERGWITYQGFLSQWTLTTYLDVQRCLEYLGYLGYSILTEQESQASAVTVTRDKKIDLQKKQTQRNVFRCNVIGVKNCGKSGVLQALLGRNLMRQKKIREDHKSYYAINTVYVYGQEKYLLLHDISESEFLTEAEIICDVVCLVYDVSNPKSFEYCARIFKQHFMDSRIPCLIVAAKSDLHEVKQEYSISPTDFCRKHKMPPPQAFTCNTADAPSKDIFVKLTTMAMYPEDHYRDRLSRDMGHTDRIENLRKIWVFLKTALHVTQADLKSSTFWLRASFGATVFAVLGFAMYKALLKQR
As to the kind of experiment: affinity purification with mass spectrometry; mono- and bivalent M41 and M114 nanotraps incubated with HEK293 lysate, compared to control nanotraps; three technical replicates; label-free quantification, iBAQ. The following applies: one partner purified.

The target in another experiment is T3, Miro1 isoform 3 (Homo sapiens (endogenous, HEK293), UniProt Q8IXI2-3).
T3 construct: endogenous human Miro1 isoform 3, identified by mass spectrometry (search against the Uniprot Homo sapiens database; 31 razor peptides); source: endogenous, HEK293 lysate
T3 sequence (Q8IXI2 other isoform, or with tags, fused parts or gaps): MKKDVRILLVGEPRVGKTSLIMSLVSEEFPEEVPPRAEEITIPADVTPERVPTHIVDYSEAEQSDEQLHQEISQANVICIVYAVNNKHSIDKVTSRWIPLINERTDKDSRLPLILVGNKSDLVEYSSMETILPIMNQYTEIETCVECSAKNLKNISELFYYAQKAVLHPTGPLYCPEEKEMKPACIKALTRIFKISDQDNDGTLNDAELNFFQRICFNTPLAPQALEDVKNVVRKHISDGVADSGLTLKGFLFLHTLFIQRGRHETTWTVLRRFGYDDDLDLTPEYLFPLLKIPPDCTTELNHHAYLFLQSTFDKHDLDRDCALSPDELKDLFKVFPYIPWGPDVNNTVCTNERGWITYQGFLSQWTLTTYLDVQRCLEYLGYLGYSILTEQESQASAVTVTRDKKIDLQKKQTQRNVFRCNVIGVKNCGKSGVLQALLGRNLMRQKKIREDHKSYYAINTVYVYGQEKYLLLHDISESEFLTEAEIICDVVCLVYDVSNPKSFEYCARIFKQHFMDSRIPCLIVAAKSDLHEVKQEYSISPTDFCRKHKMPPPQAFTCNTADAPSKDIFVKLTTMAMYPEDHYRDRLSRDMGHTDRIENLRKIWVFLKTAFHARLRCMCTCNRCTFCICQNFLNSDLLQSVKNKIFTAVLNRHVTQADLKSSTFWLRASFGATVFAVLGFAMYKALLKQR
The experiment is described as above. The conditions noted are these: one partner purified.

GFP-Miro1 (human), sequence (Q8IXI2 whole entry): as the sequence (Q8IXI2 whole entry, looked up, the tested form may be a part, canonical isoform) above
endogenous Miro1 (human (endogenous in HEK293 and HeLa)), sequence (Q8IXI2 whole entry): as the sequence (Q8IXI2 whole entry, looked up, the tested form may be a part, canonical isoform) above

B1: Fbox-M41 (VHH)
VHH: EVQLVESGGGLVHPGGSLRISCAASGFSFNSSAMSWARQAPGKGLEWVSGIQADGTTGYAHSVKGRFNISRDNAKNIVYLQMSSLKPEDSAVYYCAKEGWSTVVFGSRDYWGQGTQVTVSS
For B1, the reduction of the GFP signal in HeLa cells coexpressing the Fbox-Nb construct and GFP-Miro1 (targeted degradation) with GFP-Miro1 (human) worked out at 50%. Further, the decrease of the anti-Miro1 IF signal in HeLa cells 24 h after transfection of the Fbox-Nb (targeted degradation of endogenous Miro1; Fbox-NR control less than ∼4%) in experiment [1] turned out to be 16%.

B2: Miro1-specific nanobody M41 (VHH)
VHH: B1 VHH
notes: Cloned into pHEN6C; also called M41-Nb; M41 nanotrap; source: E. coli, purified (IMAC, SEC)
Take B2: the binding result with eGFP-cGTPase-TMD [2] is “binds”.

B3: M41 chromobody (VHH)
VHH: B1 VHH
notes: as the VHH of m10 (M41); cloned into the plasmid described as PCNA-chromobody (Panza et al., 2015); also called M41-Cb; source: HeLa, transfected, in living cells
For the molecule B3, in the experiment with eGFP-cGTPase-TMD [3], the binding result was “binds”.

B4: Miro1-specific nanobody M189 (VHH)
VHH: EVQLVESGGGLVQPGGSLRLSCTASGFPVSSAAMSWARQSPGKELEWVSGIYTDGSADYADSLKGRFTISRDDVENTINLQMNNLKPEDTAIYYCNANFFEGSWYDYWGQGSPVTVSS
notes: Cloned into pHEN6C; also called M189-Nb; M189 nanotrap; source: E. coli, purified (IMAC, SEC)
Take B4: the binding result with eGFP-cGTPase-TMD [2] was “binds”.

B5: Miro1-specific nanobody M11 (VHH)
VHH: QVQLVESGGGSVQPGGSLRLSCAASGFSFSSNVMSWARQAPGKGLEWVSGIYVDGRTHYADSVKGRFTISRDNAKNTVYLQMNSLKPEDTAVYYCAAAGDLSGYSFSPYDYDYWGQGTQVTVSS
notes: Cloned into pHEN6C; also called M11-Nb; M11 nanotrap; source: E. coli, purified (IMAC, SEC)
On to B5, for which, in the experiment with eGFP-cGTPase-TMD [2], the binding result is “binds”.

B6: Fbox-M114 (VHH)
VHH: EVQLQESGGGLVQPGGSLRLSCTASGFPVSSAAMSWARQSPGKELEWVSGIYTDGSADYADSLKGRFTISRDDVENTINLQMNSLKPEDTAVYYCKTDWWAGPSGYVAVWGQGTLVTVSS
On to B6, for which the reduction of the GFP signal in HeLa cells coexpressing the Fbox-Nb construct and GFP-Miro1 (targeted degradation) in the experiment with GFP-Miro1 (human) came to 80%. The molecule also displayed a decrease of the anti-Miro1 IF signal in HeLa cells 24 h after transfection of the Fbox-Nb (targeted degradation of endogenous Miro1; Fbox-NR control less than ∼4%) in experiment [1] of 30%.

B7: Miro1-specific nanobody M114 (VHH)
VHH: B6 VHH
notes: Cloned into pHEN6C; also called M114-Nb; M114 nanotrap; source: E. coli, purified (IMAC, SEC)
Turning to B7, the binding result with Miro1 isoform 2, with Miro1 isoform 3 and with eGFP-cGTPase-TMD [2] was “binds” throughout.

B8: M114 chromobody (VHH)
VHH: B6 VHH
notes: as the VHH of m12 (M114); cloned into the plasmid described as PCNA-chromobody (Panza et al., 2015); also called M114-Cb; M114-CB; source: HeLa, transfected, in living cells
For the molecule B8, the binding result with eGFP-cGTPase-TMD [3] is recorded as “binds”.

B9: Miro1-specific nanobody M85 (VHH)
VHH: DVQLVESGGGKVQSGGSLRLSCAASGSKLDDYSIGWFRQAPGKGREGISCITMKTGSFEYVDSVKGRFTISADNAKNTVHLQMNNLKPEDTGIYYCAALRSRGLFCVTSPYEYDLWGQGSPVTVSS
notes: Cloned into pHEN6C; also called M85-Nb; M85 nanotrap; source: E. coli, purified (IMAC, SEC)
Take B9: in the experiment with eGFP-cGTPase-TMD [2], the binding result was “binds”.

B10: M85 chromobody (VHH)
VHH: B9 VHH
notes: as the VHH of m11 (M85); cloned into the plasmid described as PCNA-chromobody (Panza et al., 2015); also called M85-Cb; source: HeLa, transfected, in living cells
Regarding B10, the binding result with eGFP-cGTPase-TMD [3] was “binds”.

Values taken from PMC8960383, “A Nanobody-Based Toolset to Monitor and Modify the Mitochondrial GTPase Miro1” (Frontiers in Molecular Biosciences, 2022).
